# CN113185608A
# B1: 1H3+3λ1 (antibody, V domains shown)
# VH: VHSQVQLVESGGGVVQPGRSLRLSCAASGFTFSSYAMHWVRQAPGKGLEWVAVISYDGNKYYADSVKGRFTISRDNSKNTLYLQMNSLRDEDTAVYYCARAPDCSGGSCSTEYFQHWGQGTLVTVSS
# VL: SWAQSVLTQEPSLTVSPGGTVTLTCGSSTGAVTSGLYAYWFQQKPGQVPRTLIYNISNKQSWTPARFSGSLLGGKAALTLSGAQPEDEADYYCLLSYSRTRVFGTKLTVLGQPKAAPSVTLFP
# B2: 1H17+3λ8 (antibody, V domains shown)
# VH: EVQLLESGGGLVQPGGSLRLSCAASGFTFSTYWMNWVRQAPGKGLEWVANRDGSQKYYVDSVEGRFTISRDNAKSSLYLQMNSLRADDTAVYYCMSGYDSGHWGQGSTVTVSS
# VL: ANFMLTQEPSLTVSPGGTVTLTCGSSTGAVTSGLYAYWFQQKPGQVPRTLIYNISNKQSWTPARFSGSLLGGKAALTLSGPEDEADYYCLLSYSRTRVFGGGTKLTVLG
# B3: 1H18+3λ10 (antibody, V domains shown)
# VH: EVQLVQSGGGLVQPGGSLRLSCAASGFTFSTYWMNWVRLSQTPGKGLEWVANINRDGSQKYYVDSVEGRFTISRLSDNAKSSLYLQMNSLRADDTAVYYCMSGYDSGHWGQGSTVTVSS
# VL: SQTVVTQEPSLTVSPGGTVTLTCGSSTGAVTSGLYAQQKPGQVPRTLIYNISNKQSWTPARFSGSLLGGKAALTLSGAQPEDEADYYCLLSYSRTRVFGGGTKLTVLG
# B4: 1H10+3λ5 (antibody, V domains shown)
# VH: EVQLVQSGGGLVQPGGSLRLSCAASVEAFSTYWMNWVRQAPGKGLEWVANINRDGSQKYYVDSVEGRFTISRDNAKSSLYLQMNSLRADDTAVYYCMSGYDSGHWGQGSLVTVSS
# VL: SQAVVTQEPSLTVSPGGTVTLTCGSSTGAVTSGLYAYWFQQKPGQVPRTLSTGAVIYNISNKQSWTPARFSGSLLGGKAALTLSGAQPEDEADYYCLLSYSRTRVFGGGTKLTVLG
# B5: 1H16+3λ7 (antibody, V domains shown)
# VH: EVQLVESGGGLVQPGGSLRLSCAASGFTFSTYWMNWVRQAPGKGLEWVANINRDGSQKYYVDSVEGRFTISRDNAKSSLYLQMNSLRADDTAVYYCMSGYDSGHWGQGSLVTVSS
# VL: SQAVVTQEPSLTVSPGGTVTLTCGSSTGAVTSGLYAYWTVTFQQKPGQVPRTLIYNISNKQSWTPARFSGSLLGGKAALTLSGAQPEDEADYYCLLSYSRTRVFGGGTKLTVLG
# Target: 狂犬病毒糖蛋白(Glycoprotein，GP) (Rabies virus (RABV))
# Assay: ELISA of HEK293T transfection supernatant
row,Binder,OD (ELISA) [OD]
1,B1,> 1.1
2,B2,> 1.1
3,B3,> 1.1
4,B4,> 1.1
5,B5,> 1.1
